The record followed here is the supplement of paper PMC7125110.

± gives the standard error. Fewer inactive variants are shown than the library holds.

B1: glmS ribozyme (parent)
chain: AUAAAAGCGCCAGAACUACAGAAAUGUAGUUGACGAGGAGGAGGUUUAUCGAAUUUUCGGCGGAUGCCUCCAAA

What all share (conditions): with glucosamine-6-phosphate
The variants in data set [1] derive from B1. Put plainly: self-cleavage kobs at 40 uM GlcN6P; higher = faster cleavage; RNA array. A digest of the protocol:
(§1)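 Glucosamine-6-phosphate in HEPES/KCl/Mg(OAc)2 buffer, at 40 μM to 10 mM, was flowed over barcoded ribozyme variants transcribed in situ by E. coli RNA polymerase on sequenced MiSeq chips. Tracking was through a hybridised Cy3 probe at 37 °C. kobs, kcat and KM came from exponential decay fits and weighted Michaelis–Menten fits of normalised per-tile medians.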

Variants of B1 are the subject of data set [2]. Put plainly: self-cleavage kobs at 160 uM GlcN6P; higher = faster cleavage; RNA array. A digest of the protocol: as §1
Data set [3] covers variants of B1. Put plainly: self-cleavage kobs at 640 uM GlcN6P; higher = faster cleavage; RNA array. A digest of the protocol:
as §1

Data set [4] covers variants of B1. Put plainly: self-cleavage kobs at 2500 uM GlcN6P; higher = faster cleavage; RNA array. A digest of the protocol: as §1
The variants in data set [5] derive from B1. Put plainly: self-cleavage kobs at 10000 uM GlcN6P; higher = faster cleavage; RNA array. A digest of the protocol: as §1

For the variant G13A A36G, the “self-cleavage kobs at 40 uM GlcN6P” value with glucosamine-6-phosphate [1] is less than 1e-05 s⁻¹. Further, the “self-cleavage kobs at 160 uM GlcN6P” value with glucosamine-6-phosphate [2] is less than 1e-05 s⁻¹. Further, the “self-cleavage kobs at 640 uM GlcN6P” value with glucosamine-6-phosphate [3] was less than 1e-05 s⁻¹. For the same variant, the “self-cleavage kobs at 2500 uM GlcN6P” value with glucosamine-6-phosphate [4] is less than 1e-05 s⁻¹. Also, the “self-cleavage kobs at 10000 uM GlcN6P” value with glucosamine-6-phosphate [5] is less than 1e-05 s⁻¹.
For the variant G32C U45C U69A, in the data set with glucosamine-6-phosphate [1], the “self-cleavage kobs at 40 uM GlcN6P” value is less than 1e-05 s⁻¹.
Turning to C8A G40A, in the data set with glucosamine-6-phosphate [1], the “self-cleavage kobs at 40 uM GlcN6P” value is less than 1e-05 s⁻¹. For the same variant, the “self-cleavage kobs at 640 uM GlcN6P” value with glucosamine-6-phosphate [3] was less than 1e-05 s⁻¹. For the same variant, the “self-cleavage kobs at 2500 uM GlcN6P” value in the data set with glucosamine-6-phosphate [4] was less than 1e-05 s⁻¹.
On to A15U C34A A64U C68A, for which, in the data set with glucosamine-6-phosphate [1], the “self-cleavage kobs at 40 uM GlcN6P” value was less than 1e-05 s⁻¹. In the data set with glucosamine-6-phosphate [5], the “self-cleavage kobs at 10000 uM GlcN6P” value is less than 1e-05 s⁻¹.
Turning to C10A C34G A42G C70G, in the data set with glucosamine-6-phosphate [1], the “self-cleavage kobs at 40 uM GlcN6P” value is less than 1e-05 s⁻¹. The “self-cleavage kobs at 10000 uM GlcN6P” value with glucosamine-6-phosphate [5] is less than 1e-05 s⁻¹.
In the case of A39U G59C, the “self-cleavage kobs at 40 uM GlcN6P” value in the data set with glucosamine-6-phosphate [1] is less than 1e-05 s⁻¹. Further, in the data set with glucosamine-6-phosphate [2], the “self-cleavage kobs at 160 uM GlcN6P” value was less than 1e-05 s⁻¹. In addition, in the data set with glucosamine-6-phosphate [3], the “self-cleavage kobs at 640 uM GlcN6P” value is less than 1e-05 s⁻¹. Also, the “self-cleavage kobs at 2500 uM GlcN6P” value with glucosamine-6-phosphate [4] was less than 1e-05 s⁻¹. For the same variant, the “self-cleavage kobs at 10000 uM GlcN6P” value with glucosamine-6-phosphate [5] is less than 1e-05 s⁻¹.
On to A15C G66A, for which the “self-cleavage kobs at 40 uM GlcN6P” value with glucosamine-6-phosphate [1] worked out at 8.43e-05 ± 1.9e-05 s⁻¹. Besides, in the data set with glucosamine-6-phosphate [2], the “self-cleavage kobs at 160 uM GlcN6P” value stood at 0.000372 ± 0.00011 s⁻¹. Moreover, the “self-cleavage kobs at 640 uM GlcN6P” value with glucosamine-6-phosphate [3] turned out to be 0.000599 ± 0.00014 s⁻¹. In the data set with glucosamine-6-phosphate [4], the “self-cleavage kobs at 2500 uM GlcN6P” value is 0.00264 ± 0.00049 s⁻¹. Moreover, the “self-cleavage kobs at 10000 uM GlcN6P” value with glucosamine-6-phosphate [5] was 0.00503 ± 0.0012 s⁻¹.
G7U A36G: the “self-cleavage kobs at 40 uM GlcN6P” value with glucosamine-6-phosphate [1] was less than 1e-05 s⁻¹. For the same variant, the “self-cleavage kobs at 640 uM GlcN6P” value with glucosamine-6-phosphate [3] is less than 1e-05 s⁻¹. For the same variant, in the data set with glucosamine-6-phosphate [4], the “self-cleavage kobs at 2500 uM GlcN6P” value was less than 1e-05 s⁻¹. For the same variant, the “self-cleavage kobs at 10000 uM GlcN6P” value with glucosamine-6-phosphate [5] was less than 1e-05 s⁻¹.
Turning to G35C A39C U49A A53U, the “self-cleavage kobs at 40 uM GlcN6P” value with glucosamine-6-phosphate [1] was less than 1e-05 s⁻¹.
As for C11U G60C, the “self-cleavage kobs at 40 uM GlcN6P” value with glucosamine-6-phosphate [1] was less than 1e-05 s⁻¹. Besides, in the data set with glucosamine-6-phosphate [2], the “self-cleavage kobs at 160 uM GlcN6P” value was less than 1e-05 s⁻¹. In the data set with glucosamine-6-phosphate [5], the “self-cleavage kobs at 10000 uM GlcN6P” value was less than 1e-05 s⁻¹.
